Results taken from the DeepSol protein solubility set.

Experiment: soluble on expression in E. coli; label from the status in PepcDB or PDB records

Sequence	soluble on expression in E. coli
MLAAWLGCVLPAGAGLPVETLRVPPGFRVELLTEAMPSAREMALSPAGILYVGSRTGKVYALPLQVPGATVRVVASGLEQPVGVAWRDGSLYVSAVSRVVRLDRIDSRLDDPPVPVVVSDRFPTETHHGWKFIAFGPDGKLYVPVGAPCNVCHRDEDRYANLMRMNADGSSLEVVARGIRNTVGFDWHPVTHELWFTDNGADMMGDDVPDDELNRITAPGQHFGYPFCHAGDVPDPEFGAGHPCSRYVPPVGKLGAHVAALGMRFYTGSNFPQAYRHNLFIAEHGSWNRSSKVGYRVVRVVLDAAGKVVRQEPFVEGWLRGERAWGRPVDVLVAPDGSLLVSDDYAGAVYRVRYTGKLEHHHHHH	soluble
MSLKTHTLPLLLSCTLFLIGACTSMPPEIRNFSAVDIPYQPVSQNAETYKDAPVRWGGTVIEVENETDFSLMQVLFHPLDRSGYPETRKPGEGRFAVEINEFLDPAIYTKGVEVTVIGTVKGNIERTIGNKTIHIPLITAKTIHLWPQAYREDNLYRYGPYPGYYGYGYPFFYNGYYRPYRFWWEGHHHHHH	not soluble
MGSDKIHHHHHHMTHRRSKSVKIYLVGGAVRDSLLNLPIKDKDYMVVGATPEQMLQLGYRQVGKDFPVFLHPITQQEYALARTERKVGLGYGGFSCYASPDVTLEQDLLRRDLTINAIAQDEEGNLHDPFNGIGDLNARLLRHVSDAFIEDPLRVLRVARFAARFHHLGFQIADSTLQLMQQIAQSGELNALTPERVWQEVDKTLSGSNPEVFFEVLRQCGALKVLFPELDALFGIPQPEKWHPEIDTGLHTLMVLAQAAILTQDKAVRFAALVHDLGKAITPIEHLPKHHGHGQKGLPIIKALCERLRIPNEFRDLALIVSDQHQNVHQAFKLRPETIIKIFDKADFWRKPERLKQLVQACIADMRGRTGFEHQDYPQGEYFSQCFAVASNVNIKAIIQAGFKGEEIKQILHMHRIDAVGQLKRDKQNAVD	not soluble
MSLNILIVGGNGGIGLAMVKEALVRFPQAQIHATYRRTKSDYEHSALIWHQVDVTDETQVKNLSQAVNSIDWVINCVGMLHTPNKGPEKNLRMVEPDFFLQNIAVNTLPSMLLAKYFTPLLKCSGAPKFAVVSAKVGSISDNHLGGWYSYRASKAALNMFLKTMSIEWQRTLKNGVVLALHPGTTDTALSEPFQANVPEGKLFTPERVASDLMGQIVKAAPQDSGAFLTYDGEREGHHHHHH	soluble
MSLFLSNVILHQLRKNDNDELVVNYRAESLRNDTSTENLVAELHRVFNAKAGKGFGCFKSDSEFQLWLQEMRRGTLPFYEFSQQSAQRLKNELAKYPFADEGILVMAEYQSLATDYLFIGLLPLNQSLKVTEGLDISATDYLDINKMDIVARIDLSSYETDKESKRYLSYIKGRVGRKVADFFLDFLQADIGLDTKQQNQVLMQAVEDFCADAKFEKEEVISYKKQVYEYCNDQIKAGDEVRVQELSGELPPSNEGVNFFDFTREQGYQLEESFPADRSTVRKLTKYVGAGGGLNLSFDSLLLGERVFYDPETDTLTIKGTPPNLEHHHHHH	not soluble
MEYFNVGKIVNTQGLQGEMRVLSVSDFAEERFKKGSQLALFDDKDRFVQEVTIVSHRKQKHFDIIKFKDMYHINAIEKYKGYTLKVSKDNQGDLQEGEFYYHQIIGMAVYEKDVLIGHVKEILQPGANDVWIVKRQGKRDLLLPYIPPVVLNVDVPNKRVDVELMEGLDDED	not soluble
MRVGIVGAGPAGVAAAVFLRRYNVHVTVFEKNRVGGLLRNAHLVENIPVLPPASGEEICKTLEKRLFESGAELIWEEVVKVENEKILTEREIHSFDYVIVASGTIPRRIPEFEVSEKVVYEFIDLPEFEKLAIYGAGDAAFDSALNALVRGKEVHLFNRGSRIRALPLLVERAKKYEKFYYHERCPILKVEEESKMVKLKTEHGVFTFDALLLSVGRLPNTSFVEPGERNFIVGDARGGFRQVSIAMGSAIETAMEILRREGTVSATLPLKEGLLNPNGEHQAG	soluble
MISASLQQRKTRTRRSMLFVPGANAAMVSNSFIYPADALMFDLEDSVALREKDTARRMVYHALQHPLYRDIETIVRVNALDSEWGVNDLEAVVRGGADVVRLPKTDTAQDVLDIEKEILRIEKACGREPGSTGLLAAIESPLGITRAVEIAHASERLIGIALGAEDYVRNLRTERSPEGTELLFARCSILQAARSAGIQAFDTVYSDANNEAGFLQEAAHIKQLGFDGKSLINPRQIDLLHNLYAPTQKEVDHARRVVEAAEAAAREGLGVVSLNGKMVDGPVIDRARLVLSRAELSGIREE	soluble
